Measurements reported in US20160319034A1 (ONCOMED PHARMACEUTICALS, published 2016).
Where a chain is given by its changes, count along the chain named. Blank lines part the entries; values can stand above or below the molecule they belong to.

Columns and labels:
[1] = target: human MET (soluble analyte in the Biacore assay) (human) (UniProt P08581); test: SPR (Biacore 2000): agent captured via goat anti-human antibody, human MET injected
[2] = target: full-length human MET (FL-MET) on cells (human) (UniProt P08581); test: FACS: inhibition of biotin-HGF binding to MET-transfected HEK-293T cells, agent at 10 µg/ml
Chain of full-length human MET (FL-MET) on cells (human) (P08581 25-1390 limits assumed): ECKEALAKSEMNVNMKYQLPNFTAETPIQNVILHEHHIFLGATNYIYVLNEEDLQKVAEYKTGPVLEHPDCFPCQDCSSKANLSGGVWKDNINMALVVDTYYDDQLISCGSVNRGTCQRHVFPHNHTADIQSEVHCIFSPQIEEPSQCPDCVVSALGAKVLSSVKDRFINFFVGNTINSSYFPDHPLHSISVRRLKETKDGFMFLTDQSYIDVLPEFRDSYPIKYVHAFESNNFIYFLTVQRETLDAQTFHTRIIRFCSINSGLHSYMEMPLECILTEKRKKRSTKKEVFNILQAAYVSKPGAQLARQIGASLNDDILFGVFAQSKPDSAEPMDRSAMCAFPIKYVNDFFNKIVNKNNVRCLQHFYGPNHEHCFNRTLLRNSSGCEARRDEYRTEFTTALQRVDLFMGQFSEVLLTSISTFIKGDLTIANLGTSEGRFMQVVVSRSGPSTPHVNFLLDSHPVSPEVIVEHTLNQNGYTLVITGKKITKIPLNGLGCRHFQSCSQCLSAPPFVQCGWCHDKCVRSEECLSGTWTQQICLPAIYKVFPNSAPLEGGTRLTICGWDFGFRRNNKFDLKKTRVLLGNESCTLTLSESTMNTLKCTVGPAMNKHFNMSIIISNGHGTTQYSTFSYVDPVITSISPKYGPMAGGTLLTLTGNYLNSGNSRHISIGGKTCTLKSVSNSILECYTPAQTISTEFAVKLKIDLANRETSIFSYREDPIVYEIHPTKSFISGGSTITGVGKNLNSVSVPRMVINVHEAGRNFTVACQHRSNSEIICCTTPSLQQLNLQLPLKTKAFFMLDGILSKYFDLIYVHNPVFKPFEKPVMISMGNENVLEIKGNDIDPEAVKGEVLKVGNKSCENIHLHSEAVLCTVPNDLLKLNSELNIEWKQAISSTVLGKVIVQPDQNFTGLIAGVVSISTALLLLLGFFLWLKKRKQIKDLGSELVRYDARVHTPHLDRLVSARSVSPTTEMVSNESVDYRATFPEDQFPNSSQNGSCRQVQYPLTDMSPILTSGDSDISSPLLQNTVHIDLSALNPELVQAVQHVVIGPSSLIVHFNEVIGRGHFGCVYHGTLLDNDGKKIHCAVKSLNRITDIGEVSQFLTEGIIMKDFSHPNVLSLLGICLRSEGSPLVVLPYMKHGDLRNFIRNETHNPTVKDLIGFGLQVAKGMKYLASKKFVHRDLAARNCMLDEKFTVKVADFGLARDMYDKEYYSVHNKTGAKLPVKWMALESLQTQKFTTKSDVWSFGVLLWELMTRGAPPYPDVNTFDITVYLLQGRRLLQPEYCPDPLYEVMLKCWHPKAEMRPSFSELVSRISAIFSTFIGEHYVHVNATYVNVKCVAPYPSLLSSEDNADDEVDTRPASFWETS

[3] = target: full-length human MET (FL-MET) on cells (human) (UniProt P08581); test: FACS: inhibition of biotin-HGF binding to MET-transfected HEK-293T cells, agent at 0.16 µg/ml
[4] = target: full-length human MET (FL-MET) on cells (human) (UniProt P08581); test: FACS blocking assay on MET-transfected HEK-293T cells; blocked ligand: biotinylated HGF, PE-streptavidin
[5] = target: T1, human MET (soluble analyte in the Biacore assay) (human, UniProt P08581 25-932); test: SPR (Biacore 2000): agent captured via goat anti-human antibody, human MET injected
T1 sequence (P08581 25-932 limits assumed): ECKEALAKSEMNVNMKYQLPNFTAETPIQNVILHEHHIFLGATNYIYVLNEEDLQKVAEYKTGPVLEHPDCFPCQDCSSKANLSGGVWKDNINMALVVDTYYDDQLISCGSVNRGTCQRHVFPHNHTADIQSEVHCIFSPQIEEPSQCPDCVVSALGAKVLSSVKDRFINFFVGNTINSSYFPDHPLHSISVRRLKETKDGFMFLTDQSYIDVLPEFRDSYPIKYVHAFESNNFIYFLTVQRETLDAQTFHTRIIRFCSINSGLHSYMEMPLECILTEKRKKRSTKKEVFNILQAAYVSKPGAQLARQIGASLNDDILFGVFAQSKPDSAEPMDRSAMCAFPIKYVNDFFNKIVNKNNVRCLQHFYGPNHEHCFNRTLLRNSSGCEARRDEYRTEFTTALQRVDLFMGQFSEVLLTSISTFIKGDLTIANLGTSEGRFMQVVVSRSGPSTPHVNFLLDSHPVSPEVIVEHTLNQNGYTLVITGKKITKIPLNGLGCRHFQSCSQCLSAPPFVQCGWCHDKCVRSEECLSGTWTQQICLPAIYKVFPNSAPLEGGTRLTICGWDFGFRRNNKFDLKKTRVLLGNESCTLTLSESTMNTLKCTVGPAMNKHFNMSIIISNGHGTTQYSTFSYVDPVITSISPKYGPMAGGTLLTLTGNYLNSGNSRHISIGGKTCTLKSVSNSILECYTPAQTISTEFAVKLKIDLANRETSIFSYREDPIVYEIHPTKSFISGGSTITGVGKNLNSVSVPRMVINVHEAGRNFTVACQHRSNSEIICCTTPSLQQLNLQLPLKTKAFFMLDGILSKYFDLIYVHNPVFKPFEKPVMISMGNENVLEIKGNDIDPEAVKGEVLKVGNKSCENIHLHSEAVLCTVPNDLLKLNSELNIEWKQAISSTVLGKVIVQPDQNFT
Protocol: (§1) The KD of monovalent version of anti-MET antibody 73R009, monovalent anti-MET antibody 5D5, and anti-MET/FZD8-Fc bispecific agent 315B06 were determined using a Biacore 2000 system from Biacore Life Sciences (GE Healthcare). A goat anti-human antibody (Invitrogen H10500) was coupled to a carboxymethyl-dextran (CM5) SPR chip using standard amine-based chemistry (NHS/EDC) and blocked with ethanolamine. Antibodies were diluted to a concentration of 10 μg/ml in HBS-P-BSA (0.01M HEPES pH7.4, 0.15M NaCl, 0.005% v/v Polysorbate 20, 10 μg/ml BSA) and captured onto the chip via the anti-human antibody. Human MET was serially diluted 2-fold from 300 nM to 37.5 nM in HBS-P-BSA and injected sequentially over the captured anti-MET antibodies. MET association and dissociation was measured at each concentration. After each antigen injection 5 μl of 100 mM H₃P0₄ was injected to remove the antigen-antibody complex and a subsequent injection performed. Kinetic data were collected over time and were fit using the simultaneous global fit equation to yield affinity constants (KD values) for each agent.
In addition, the bispecific agent 315B06 appeared to have stronger affinity for human MET than anti-MET antibody 5D5.

[6] = target: T2, human Sema mutant Mut96,99 (F96L and Q99R; Sema-hCD4TM-GFP) on cells (human, UniProt P08581 25-515); test: FACS on transfected HEK-293T cells
T2 construct: not shown: human CD4 transmembrane domain and GFP (display and reporter carrier at the C end)
T2 sequence (P08581 25-515 F96L/Q99R limits assumed): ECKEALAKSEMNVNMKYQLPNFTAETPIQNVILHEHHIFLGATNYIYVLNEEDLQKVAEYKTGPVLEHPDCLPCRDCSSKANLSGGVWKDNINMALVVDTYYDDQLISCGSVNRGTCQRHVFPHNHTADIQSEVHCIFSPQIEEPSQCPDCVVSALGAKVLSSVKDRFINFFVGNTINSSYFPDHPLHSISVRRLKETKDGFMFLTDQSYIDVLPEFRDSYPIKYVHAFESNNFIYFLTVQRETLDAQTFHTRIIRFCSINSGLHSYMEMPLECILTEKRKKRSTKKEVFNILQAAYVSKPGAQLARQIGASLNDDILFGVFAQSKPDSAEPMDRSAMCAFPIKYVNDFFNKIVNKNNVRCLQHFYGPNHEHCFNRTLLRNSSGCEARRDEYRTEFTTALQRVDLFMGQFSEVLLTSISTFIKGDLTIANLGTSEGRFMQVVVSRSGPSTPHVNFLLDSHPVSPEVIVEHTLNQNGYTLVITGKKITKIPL
Protocol: (§2) To identify the MET epitope recognized by the anti-MET/FZD8-Fc bispecific agent, epitope mapping was performed. […] Therefore, site-directed mutagenesis was performed to create a series of human Sema mutants. Kunkel mutagenesis was used to replace specific amino acids in the human Sema sequence with the corresponding amino acids found in the mouse Sema sequence at predicted antibody-binding sites. The human Sema mutants were: Mut96,99 (F96L and Q99R), Mut96 (F96L), Mut99 (Q99R), Mut328 (Q328N), Mut331 (R331K), and Mut337,338 (L337P and N338S).
(§3) Mammalian expression plasmid vectors encoding a wild-type human Sema, a wild-type mouse Sema, a mouse/human Sema mutant wherein the 5′ end is mouse (aa 1-331) and the 3′ end is human (aa 332-515), and the human Sema mutants outlined above were generated by standard recombinant technology. These constructs comprise the transmembrane domain of a human CD4 protein and GFP (for example, Sema-hCD4TM-GFP). These expression constructs allow for expression of the Sema domain on the cell surface, as well as expression of GFP to monitor expression. […] The cells were washed and bound bispecific agents were detected with a secondary anti-human Fc antibody conjugated to allophycocyanin (APC). […] Labeled cells were analyzed by flow cytometry to measure the binding of 315B07 and 5D5/FZD8-Fc to the series of Sema mutants.

[7] = target: T3, human Sema mutant Mut99 (Q99R; Sema-hCD4TM-GFP) on cells (human, UniProt P08581 25-515); test: FACS on transfected HEK-293T cells
T3 construct: not shown: human CD4 transmembrane domain and GFP (display and reporter carrier at the C end)
T3 sequence (P08581 25-515 Q99R limits assumed): as the sequence (P08581 25-515 F96L/Q99R limits assumed) above, with L72F counted along it
Protocol: as §2, §3

[8] = target: T1, human MET (soluble analyte in the …); test: SPR (Biacore 2000) as described in Example 1
Protocol: as §1
Antibody 73R010 was used in a variation of the anti-MET/FZD8-Fc bispecific agent, and this variant bispecific agent is referred to as 315B07.

Chain of human MET (soluble analyte in the Biacore assay) (human) (P08581 25-932 limits assumed): as the sequence (P08581 25-932 limits assumed) above

B2: anti-MET/FZD8-Fc bispecific agent 315B07 (bispecific antibody, human IgG2, kappa)
heavy: QVQLQESGPGLVKPSETLSLTCTVSGTTITASYAWSWIRQPPGKGLEWMGYISYSGGTDYNPSLKSRVTISRDTFKNQFSLKLSSVTAADTAVYYCARKGAYWGQGTLVTVSSASTKGPSVFPLAPCSRSTSESTAALGCLVKDYFPEPVTVSWNSGALTSGVHTFPAVLQSSGLYSLSSVVTVPSSNFGTQTYTCNVDHKPSNTKVDKTVERKCCVECPPCPAPPVAGPSVFLFPPKPKDTLMISRTPEVTCVVVDVSHEDPEVQFNWYVDGVEVHNAKTKPREEQFNSTFRVVSVLTVVHQDWLNGKEYKCKVSNKGLPAPIEKTISKTKGQPREPQVYTLPPSREKMTKNQVSLTCLVKGFYPSDIAVEWESNGQPENNYKTTPPMLKSDGSFFLYSKLTVDKSRWQQGNVFSCSVMHEALHNHYTQKSLSLSPGK
light: EIVLTQSPATLSLSPGERATLSCSASSSVSSSYLYWYQQKPGQAPRLLIYSTSNLASGIPARFSGSGSGTDFTLTISRLEPEDFAVYYCHQWSSYPYTFGQGTKLEIKRTVAAPSVFIFPPSDEQLKSGTASVVCLLNNFYPREAKVQWKVDNALQSGNSQESVTEQDSKDSTYSLSSTLTLSKADYEKHKVYACEVTHQGLSSPVTKSFNRGEC
chain: ASAKELACQEITVPLCKGIGYNYTYMPNQFNHDTQDEAGLEVHQFWPLVEIQCSPDLKFFLCSMYTPICLEDYKKPLPPCRSVCERAKAGCAPLMRQYGFAWPDRMRCDRLPEQGNPDTLCMDYNRTDLTTTKVDKTVERKSCVECPPCPAPPVAGPSVFLFPPKPKDTLMISRTPEVTCVVVDVSHEDPEVQFNWYVDGVEVHNAKTKPREEQFNSTFRVVSVLTVVHQDWLNGKEYKCKVSNKGLPAPIEKTISKTKGQPREPQVYTLPPSREEMTKNQVSLTCLVEGFYPSDIAVEWESNGQPENNYKTTPPMLDSDGSFFLYSELTVDKSRWQQGNVFSCSVMHEALHNHYTQKSLSLSPGK
notes: Heterodimer with one humanized anti-MET arm (73R010) and one FZD8-Fc soluble receptor arm; also called OMP-315B07; 3151307 [sic]
binding result [6]: no binding
binding result [7]: no binding
Kd [8]: 0.126 nM

B3: anti-MET antibody 73R009 (bivalent “parental” antibody) (antibody, human IgG2, kappa, V domains shown)
VH: QVQLQESGPGLVKPSETLSLTCTVTGTTITASYAWSWIRQPPGKGLEWMGYISYSGGTDYNPSLKSRITISRDTFKNQFSLKLSSVTAADTATYYCARKGAYWGQGTLVTVSS
VL: DIVLTQSPATLSASPGEKVTLTCSASSSVSSSYLYWYQQKPGQAPKLLIYSTSNLASGVPARFSGSGSGTSYSLTISSLEPEDFATYYCHQWSSYPYTFGGGTKLEIKR
Kd [5]: 1.1 nM

Other lines, results leading:

Kd [1]: 7.2 nM
percent reduction of HGF binding to MET [2]: 70%
percent reduction of HGF binding to MET [3]: 28%
% Binding of hHGF at 0.16 ug/ml antibody [4]: 14.3%
% Binding of hHGF at 0.3 ug/ml antibody [4]: 10.6%
% Binding of hHGF at 0.625 ug/ml antibody [4]: 12%
% Binding of hHGF at 1.25 ug/ml antibody [4]: 8.54%
% Binding of hHGF at 2.5 ug/ml antibody [4]: 9.61%
% Binding of hHGF at 5 ug/ml antibody [4]: 6.67%
% Binding of hHGF at 10 ug/ml antibody [4]: 6.31%
% Inhibition of hHGF binding at 0.3 ug/ml antibody [4]: 47%
% Inhibition of hHGF binding at 0.625 ug/ml antibody [4]: 40%
% Inhibition of hHGF binding at 1.25 ug/ml antibody [4]: 57%
% Inhibition of hHGF binding at 2.5 ug/ml antibody [4]: 52%
% Inhibition of hHGF binding at 5 ug/ml antibody [4]: 67%
Molecule: monovalent anti-MET antibody 5D5

Kd [5]: 1.8 nM
B1: anti-MET/FZD8-Fc bispecific agent 315B06 (bispecific antibody, human IgG2, kappa)
heavy: B2 heavy with S25T, V68I, V93T
light: DIVLTQSPATLSASPGEKVTLTCSASSSVSSSYLYWYQQKPGQAPKLLIYSTSNLASGVPARFSGSGSGTSYSLTISSLEPEDFATYYCHQWSSYPYTFGGGTKLEIKRTVAAPSVFIFPPSDEQLKSGTASVVCLLNNFYPREAKVQWKVDNALQSGNSQESVTEQDSKDSTYSLSSTLTLSKADYEKHKVYACEVTHQGLSSPVTKSFNRGEC
chain: B2 chain
notes: Heterodimer with one anti-MET arm (heavy and light chain) and one FZD8-Fc soluble receptor arm; also called bispecific anti-MET/FZD8-Fc agent 315B06; 351B06 [sic]

Kd [5]: 1.4 nM
B4: monovalent version of anti-MET antibody 73R009 (antibody, V domains shown)
VH: B3 VH
VL: DIVLTQSPATLSASPGEKVTLTCSASSSVSSSYLYWYQQKPGQAPKLLIYSTSNLASGVPARFSGSGSGTSYSLTISSLEPEDFATYYCHQWSSYPYTFGGGTKLEIK
notes: Only the 73R009 variable regions can be tied to this molecule; also called monovalent anti-MET antibody 73R009; monovalent version of 73R009
